Consider 8 molecules from paper PMC6881253, “The PCNA interaction motifs revisited: thinking outside the PIP-box” (Cellular and Molecular Life Sciences: CMLS, 2019).

Common to all, as to conditions: both partners purified
Assay [1] deals with T1, N-terminally His6-tagged human PCNA (proliferating cell nuclear antigen) (human, UniProt P12004 1-261).
T1 construct: Proliferating cell nuclear antigen, human; The tag is used for capture in SPR; source: E. coli BL21(DE3), purified (Ni-NTA, SEC)
Description: SPR; Biacore T200, single-cycle; His6-PCNA captured by anti-His antibody coupled to a CM5 chip, peptides injected (five twofold dilutions); 10 mM HEPES, 150 mM NaCl, 0.05% P20, pH 7.4; 25 °C; kinetic fit for p21, steady-state fit for the other peptides.

Assay [2] concerns the target T1, N-terminally His6-tagged human PCNA …. The description is as above. This is another data set of the same source.
Assay [3] has the same target. Put plainly: ITC; ITC200; PCNA injected into the peptide; 10 mM HEPES, 150 mM NaCl, 1 mM EDTA, 1 mM TCEP, pH 7.4; 25 °C; single binding site model; triplicates.
Assay [4] has the same target. Described as above. This is another data set of the same source.

T1 sequence (P12004 whole entry): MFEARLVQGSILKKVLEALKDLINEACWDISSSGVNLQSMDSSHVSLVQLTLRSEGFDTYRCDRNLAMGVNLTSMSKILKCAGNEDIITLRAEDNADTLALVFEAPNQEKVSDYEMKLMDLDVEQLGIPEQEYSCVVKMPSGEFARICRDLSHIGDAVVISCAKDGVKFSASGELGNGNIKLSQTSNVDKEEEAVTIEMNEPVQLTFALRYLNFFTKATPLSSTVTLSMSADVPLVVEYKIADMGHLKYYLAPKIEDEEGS

B1: synthetic peptide harboring an APIM (Ac-MDRWLVKW-NH2) (peptide)
peptide: Ac-MDRWLVKW-NH2
notes: also called APIM peptide; source: synthetic peptide, > 95% purity
Regarding B1, the Kd in assay [1] worked out at 11000 nM.

B2: MSH6 peptide (Ac-RQSTLYSFFPKSPAL-NH2) (peptide)
peptide: Ac-RQSTLYSFFPKSPAL-NH2
notes: DNA mismatch repair protein MSH6, human, canonical PIP-box at the very N-terminus; source: peptide, > 95% purity
With B2, the results for the Kd in assay [2] and in assay [1] were 3000 ± 50 nM and 2900 nM, respectively.

B3: p21^140–157,Q144A (Ac-RKRRATSMTDFYHSKRRL-NH2) (peptide)
peptide: Ac-RKRRATSMTDFYHSKRRL-NH2
notes: also called p21 peptide variant with Q at the first position mutated to alanine; source: peptide, > 95% purity
In assay [3], B3 registered a Kd of 1300 nM.

B4: p21^140–157 peptide (peptide)
peptide: Ac-RKRRQTSMTDFYHSKRRL-NH2
notes: also called extended peptide; source: peptide, > 95% purity
Molecule B4 came in with a Kd in assay [3] of 27 nM.

B5: FEN1 peptide (Ac-TQGRLDDFFKVTGSL-NH2) (peptide)
peptide: Ac-TQGRLDDFFKVTGSL-NH2
notes: Flap endonuclease 1 (FEN1), human, canonical PIP-box; source: peptide, > 95% purity
For the molecule B5, in assay [1], the affinity, expressed as Kd, was 45000 nM. In other words, the double-digit micromolar range.

B6: p21^140–164 peptide (Ac-[residues removed]-NH2) (peptide)
peptide: RKRRQTSMTDFYHSKRRLIFSKRKP
modifications: N-terminally acetylated, C-terminally amidated
notes: called p21^140–163 in the results and the ITC methods; the name p21^140–163 is used elsewhere for the same peptide; also called p21^140–163; source: peptide, > 95% purity
Consider B6, for which, in assay [3], the Kd was 6.4 nM.

B7: chimeric peptide comprising the Fen1 motif and the flanking regions of p21 (Ac-RKRRQGRLDDFFHSKRRL-NH2) (peptide)
peptide: Ac-RKRRQGRLDDFFHSKRRL-NH2
notes: PIP-box motif of flap endonuclease 1 (FEN1), human; also called p21 flanks grafted to Fen1; source: peptide, > 95% purity
B7 returned a Kd in assay [3] of 730 nM.

B8: p21^143–157 peptide (Ac-RQTSMTDFYHSKRRL-NH2) (peptide)
peptide: Ac-RQTSMTDFYHSKRRL-NH2
notes: also called initial p21 peptide; p21 peptide; source: peptide, > 95% purity
Turning to B8, in assay [4], the Kd is 67 nM and the dH is -55 kcal/mol. Besides, in assay [2], the dissociation rate constant (koff) worked out at 0.14 ± 0.0003 s⁻¹, the kon was determined as 1.7e+06 M⁻¹ s⁻¹ and the “stoichiometry N” value was 3 ligands per PCNA trimer. Further, the Kd in assay [1] is 80 nM.
